Experimental data reported in the supplement of paper PMC10567573.

B1: MYL5 (parent)
chain: FQFASIDVAGNLDYKALSYVITHG
B2: TMEM106C (parent)
chain: YVTTNVSLIPPRSEQLVNFTGKAE

Variants of: B1
Test: protein stability index of a GFP-peptide fusion (GPS, HEK-293T) (PSI 1-6); higher = more stable
Details: c terminus: a fixed tail appended
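Further: lentivirally expressed fusions sorted by FACS into six bins by GFP to DsRed ratio, PSI derived from sequencing read proportions per bin multiplied by bin number.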

Protein stability index of substitutions, site by site:
S18: Q 1.49; L 1.83; E 1.56; K 1.62; D 1.75; M 3.46; I 2.66
V20: S 3.47; D 1.34; F 3.64; N 1.7; P 1.32; H 3.27; Y 1.3; G 2.81; C 3.44; M 1.49; K 2.23; T 2.29; A 3.37; R 2.46; Q 2.96
A9: P 1.7; T 3.01; H 2.26; K 2.71; Y 4.67; Q 1.91; F 2.33; L 2.77; M 3.38; N 3.37
A16: S 2.11; F 3.33; N 1.91; E 2.37; Q 2.81; D 3.18; P 5.11; L 2.64; T 2.44; V 3.37; K 2.25
D13: V 2.86; P 2.51; T 2.23; L 2.49; N 3.69; A 3.41
S5: V 2.69; K 2.4; C 1.36; A 3.09; F 3.77; W 2.62; N 3.74; I 4.16; D 2.43; M 3.67; Y 3.17
T22: E 2.02; A 2.03; I 2.55; N 2.52; D 1.8; H 3.83; C 2.52; G 3.98; M 2.95; Q 2.54; K 2.22; W 4.39
A4: Q 3.96; H 4.96; T 2.81; P 2.19; L 4.51; S 2.84; V 1.99; N 2.56
D7: K 2.52; I 3.19; C 3.48; S 3.9; Y 3.46; N 2.8; R 1.11; G 2.38; A 2.72; E 2.83
G24: T 3.18; L 3.92; R 3.26; F 2.42; Q 2.05; A 3
Y19: F 1.87; T 1.83; H 2.35; N 2.41; W 2.69; P 1.43; K 1.06; V 2.19; R 2.11; M 2.44; Q 3.41; D 1.53; E 2.89; G 3.74; S 1.73
L12: C 1.24; F 4.33; Q 3.21; K 1.98; D 1.67; S 2.44; P 2.88; T 1.83; Y 2.45; V 2.56; E 3.08
H23: D 2.25; L 2.78; K 1.43; P 2.56; Q 3.48; A 2.01; T 2.42; E 2.44; R 2.65
K15: Y 3.8; N 2.34; R 2.16; D 2.81; A 3.38; Q 3.65; T 3.79; H 2.12; I 2.98; F 2.81; V 2.4; E 1.14; S 2.31; G 1.5
N11: D 1.17; T 2.92; E 2.83; K 2.17; Q 5.1; A 2.52; C 3.05; P 3.96; W 2.82; S 3.23
V8: R 2.8; P 2.55; S 2.09; D 4.22; H 3.1; G 3.17; C 2.11; N 2.44; E 2.42; W 2.9; K 2.17; M 2.67
G10: N 2.84; A 2.49; P 2.92; F 2.96; D 2.05; I 2.02; K 2.08; V 2.6; W 1.35; H 1.84; L 1.72; Q 3.41; E 3.19
I6: H 4; D 1.4; A 2.72; T 1.66; N 3.39; E 1.49; Q 2.92; M 3.92; P 2.43; Y 2.46; G 1.26; S 1.18; F 4.13
L17: T 2.2; F 2.71; M 3.7; N 1.39; S 3.25; P 2.35; D 1.94; H 2.06; E 1.44; K 2.71; C 3.94; A 2.49; W 2.39; Q 2.03; G 2.72; Y 2.8
I21: Y 1.65; S 1.72; D 2.57; A 2.79; G 2.37; R 1.03; E 2.11; K 1.64; Q 1.9; V 2.26; P 2.18; H 1.53; N 1.93; M 1.48; T 1.54
Y14: M 2.4; S 2.15; P 2.28; W 3.44; H 2.1; T 3.5; A 1.82; K 2.48; R 3.3; E 1.25; N 2.27; D 2.21; Q 2.03

Variants of: B2
Test: as above
Details: c terminus: a fixed tail appended

Protein stability index of substitutions, site by site:
V6: A 1.86; C 1.82
V2: Y 3.22; H 2.62; M 3.03; G 4.17; K 3.51; R 3.23; N 4.08; L 2.83; C 2.3; P 3.98; A 2.81; W 2.66; Q 3.28; I 2.67; T 3.48; D 4.58; S 3.79; F 2.98; E 4.58
T4: G 1.89; M 2.59; S 1.86; A 1.71; N 2.1; Q 2.54; H 2.07; P 2.43; E 1.94; W 2.85; C 1.29; I 1.75; Y 2.24; K 1.77; L 2.45; R 2.23; F 1.43; D 2.03; V 1.51
N5: H 1.66; R 2.17; Q 2.71; A 1.91; P 2.67; G 1.22; M 2.16; S 1.63; I 2.24; F 2.64; L 2.32; D 1.96; C 2.28; W 3.52; K 2.41; E 2.05; V 1.69; Y 2.98; T 2.52
Y1: L 2.94; D 3.69; H 3.88; I 2.46; W 2.15; E 3.54; V 2.19; T 3.44; P 3.49; A 3.53; C 2.4; G 4; Q 3.17; F 2.21; R 3.44; K 3.61; N 3.79; M 3.08; S 3.24
T3: C 2.3; D 1.9; Q 2.64; G 2.11; A 2.75; N 1.82; I 2.12; P 3.42; E 2.99; M 1.46; R 2.52; H 1.98; F 2.58; V 1.98; S 1.98; K 2.18; Y 2.45; L 2.15; W 2.91
